Results published in patent US20170306033A1 (Amgen, published 2017).

T1: human PAC1 receptor (human, UniProt P41586 21-468)
T1 sequence: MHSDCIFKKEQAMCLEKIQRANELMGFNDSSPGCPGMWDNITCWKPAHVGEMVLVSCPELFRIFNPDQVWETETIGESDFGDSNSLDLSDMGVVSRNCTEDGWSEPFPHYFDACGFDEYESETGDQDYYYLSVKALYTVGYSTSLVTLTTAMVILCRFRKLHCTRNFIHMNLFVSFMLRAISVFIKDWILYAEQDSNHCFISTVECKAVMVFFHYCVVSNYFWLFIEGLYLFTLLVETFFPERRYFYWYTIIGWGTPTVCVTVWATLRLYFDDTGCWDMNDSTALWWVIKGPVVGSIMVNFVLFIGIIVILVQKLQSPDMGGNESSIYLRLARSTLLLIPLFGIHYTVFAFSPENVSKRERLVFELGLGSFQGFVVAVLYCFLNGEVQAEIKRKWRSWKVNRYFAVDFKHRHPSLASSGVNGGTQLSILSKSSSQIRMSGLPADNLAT


What was measured:
[1] = target: human CGRP receptor (human, UniProt Q16602 23-461; O60894 27-148); test: cell-based or functional assay
[2] = target: T1, human PAC1 receptor; test: cell-based or functional assay

Sequence of human CGRP receptor (Q16602 23-461 limits assumed, chain 1 of 2): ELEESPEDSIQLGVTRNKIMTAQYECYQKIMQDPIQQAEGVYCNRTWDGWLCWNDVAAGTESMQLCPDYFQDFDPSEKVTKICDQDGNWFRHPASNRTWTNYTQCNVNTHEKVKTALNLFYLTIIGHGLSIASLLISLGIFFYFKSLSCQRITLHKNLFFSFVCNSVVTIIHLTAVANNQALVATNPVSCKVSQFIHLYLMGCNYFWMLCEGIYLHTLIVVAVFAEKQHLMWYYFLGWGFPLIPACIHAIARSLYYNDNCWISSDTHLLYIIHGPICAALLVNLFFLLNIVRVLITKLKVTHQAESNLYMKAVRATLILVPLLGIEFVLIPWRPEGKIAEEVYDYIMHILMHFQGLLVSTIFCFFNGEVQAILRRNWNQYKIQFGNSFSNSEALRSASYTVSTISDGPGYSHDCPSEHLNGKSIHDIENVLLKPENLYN
Sequence of human CGRP receptor (O60894 27-148 limits assumed, chain 2 of 2): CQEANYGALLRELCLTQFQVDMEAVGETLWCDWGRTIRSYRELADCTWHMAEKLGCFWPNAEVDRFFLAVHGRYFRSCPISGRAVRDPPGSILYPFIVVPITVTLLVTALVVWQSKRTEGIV

Binder	% inhibition of human CGRPR [1] [%]	% inhibition of human PAC1 [2] [%]
iPS:327707 (bispecific antibody, human IgG1, kappa, lambda, N297G) light 1: DIQMTQSPSSLSASVGDRITITCRASQSISRYLNWYQQKPGKAPKLLIYAASSLQSGIPSRFSGSGSGTDFTLTINSLQPEDFATYFCQQSYSPPFTFGEGTKVDIKRTVAAPSVFIFPPSDEQLKSGTASVVCLLNNFYPREAKVQWKVDNALQSGNSQESVTEQDSKDSTYSLESTLTLSKADYEKHKVYACEVTHQGLSSPVTKSFNRGEC heavy 1: not shown light 2: QSVLTQPPSVSAAPGQKVTISCSGSSSNIGNNYVSWYQQLPGTAPKLLIYDNNKRPSGIPDRFSGSKSGTSATLGITGLQTGDEADYYCGTWDSRLSAVVFGKGTKLTVLGQPKANPTVTLFPPSSEELQANKATLVCLISDFYPGAVTVAWKADGSPVKAGVETTKPSKQSNNKYAAKSYLSLTPEQWKSHRSYSCQVTHEGSTVEKTVAPTECS heavy 2: QVQLVESGGGVVQPGRSLRLSCAASGFTFSSFGMHWVRQAPGKELEWVAVISFDGSIKYSVDSVKGRFTISRDNSKNTLFLQMNSLRAEDTAVYYCARDRLNYYDSSGYYHYKYYGMAVWGQGTTVTVSSASTKGPSVFPLAPSSKSTSGGTAALGCLVKDYFPEPVTVSWNSGALTSGVHTFPAVLQSSGLYSLESVVTVPSSSLGTQTYICNVNHKPSNTKVDKKVEPKSCDKTHTCPPCPAPELLGGPSVFLFPPKPKDTLMISRTPEVTCVVVDVSHEDPEVKFNWYVDGVEVHNAKTKPCEEQYGSTYRCVSVLTVLHQDWLNGKEYKCKVSNKALPAPIEKTISKAKGQPREPQVYTLPPSRKEMTKNQVSLTCLVKGFYPSDIAVEWESNGQPENNYKTTPPVLKSDGSFFLYSKLTVDKSRWQQGNVFSCSVMHEALHNHYTQKSLSLSPGK	73	72
iPS:327708 (bispecific antibody, human IgG1, kappa, lambda, N297G) light 1: not shown heavy 1: not shown light 2: QSVLTQPPSVSAAPGQKVTISCSGSSSNIGNNYVSWYQQLPGTAPKLLIYDNNKRPSGIPDRFSGSKSGTSATLGITGLQTGDEADYYCGTWDSRLSAVVFGKGTKLTVLGQPKANPTVTLFPPSSEELQANKATLVCLISDFYPGAVTVAWKADGSPVKAGVETTKPSKQSNNKYAAKSYLSLTPEQWKSHRSYSCQVTHEGSTVEKTVAPTECS heavy 2: QVQLVESGGGVVQPGRSLRLSCAASGFTFSSFGMHWVRQAPGKELEWVAVISFDGSIKYSVDSVKGRFTISRDNSKNTLFLQMNSLRAEDTAVYYCARDRLNYYDSSGYYHYKYYGMAVWGQGTTVTVSSASTKGPSVFPLAPSSKSTSGGTAALGCLVKDYFPEPVTVSWNSGALTSGVHTFPAVLQSSGLYSLESVVTVPSSSLGTQTYICNVNHKPSNTKVDKKVEPKSCDKTHTCPPCPAPELLGGPSVFLFPPKPKDTLMISRTPEVTCVVVDVSHEDPEVKFNWYVDGVEVHNAKTKPCEEQYGSTYRCVSVLTVLHQDWLNGKEYKCKVSNKALPAPIEKTISKAKGQPREPQVYTLPPSRKEMTKNQVSLTCLVKGFYPSDIAVEWESNGQPENNYKTTPPVLKSDGSFFLYSKLTVDKSRWQQGNVFSCSVMHEALHNHYTQKSLSLSPGK	79	18
iPS:327709 (bispecific antibody, human IgG1, kappa, lambda, N297G) light 1: DIQLTQSPSFLSASVGDRVTITCRASQSIGRSLHWYQQKPGKAPKLLIKYASQSLSGVPSRFSGSGSGTEFTLTISSLQPEDFATYYCHQSSRLPFTFGEGTKVDIKRTVAAPSVFIFPPSDEQLKSGTASVVCLLNNFYPREAKVQWKVDNALQSGNSQESVTEQDSKDSTYSLESTLTLSKADYEKHKVYACEVTHQGLSSPVTKSFNRGEC heavy 1: not shown light 2: QSVLTQPPSVSAAPGQKVTISCSGSSSNIGNNYVSWYQQLPGTAPKLLIYDNNKRPSGIPDRFSGSKSGTSATLGITGLQTGDEADYYCGTWDSRLSAVVFGKGTKLTVLGQPKANPTVTLFPPSSEELQANKATLVCLISDFYPGAVTVAWKADGSPVKAGVETTKPSKQSNNKYAAKSYLSLTPEQWKSHRSYSCQVTHEGSTVEKTVAPTECS heavy 2: QVQLVESGGGVVQPGRSLRLSCAASGFTFSSFGMHWVRQAPGKELEWVAVISFDGSIKYSVDSVKGRFTISRDNSKNTLFLQMNSLRAEDTAVYYCARDRLNYYDSSGYYHYKYYGMAVWGQGTTVTVSSASTKGPSVFPLAPSSKSTSGGTAALGCLVKDYFPEPVTVSWNSGALTSGVHTFPAVLQSSGLYSLESVVTVPSSSLGTQTYICNVNHKPSNTKVDKKVEPKSCDKTHTCPPCPAPELLGGPSVFLFPPKPKDTLMISRTPEVTCVVVDVSHEDPEVKFNWYVDGVEVHNAKTKPCEEQYGSTYRCVSVLTVLHQDWLNGKEYKCKVSNKALPAPIEKTISKAKGQPREPQVYTLPPSRKEMTKNQVSLTCLVKGFYPSDIAVEWESNGQPENNYKTTPPVLKSDGSFFLYSKLTVDKSRWQQGNVFSCSVMHEALHNHYTQKSLSLSPGK	82	29
iPS:327698 (bispecific antibody, human IgG1, kappa, lambda, N297G) light 1: EIVLTQSPATLSLSPGERATLSCRASQSVGRSLHWYQQKPGQAPRLLIKYASQSLSGIPARFSGSGSGTDFTLTISSLEPEDFAVYYCHQSSRLPFTFGEGTKVDIKRTVAAPSVFIFPPSDEQLKSGTASVVCLLNNFYPREAKVQWKVDNALQSGNSQESVTEQDSKDSTYSLESTLTLSKADYEKHKVYACEVTHQGLSSPVTKSFNRGEC heavy 1: not shown light 2: QSVLTQPPSVSAAPGQKVTISCSGSSSNIGNNYVSWYQQLPGTAPKLLIYDNNKRPSGIPDRFSGSKSGTSTTLGITGLQTGDEADYYCGTWDSRLSAVVFGKGTKLTVLGQPKANPTVTLFPPSSEELQANKATLVCLISDFYPGAVTVAWKADGSPVKAGVETTKPSKQSNNKYAAKSYLSLTPEQWKSHRSYSCQVTHEGSTVEKTVAPTECS heavy 2: QVQLVESGGGVVQPGRSLRLSCAASGFTFSSFGMHWVRQAPGKELEWVAVISFDGSIKYSVDSVKGRFTISRDNSKNTLFLQMNSLRAEDTAVYYCARDRLNYYESSGYYHYKYYGMAVWGQGTTVTVSSASTKGPSVFPLAPSSKSTSGGTAALGCLVKDYFPEPVTVSWNSGALTSGVHTFPAVLQSSGLYSLESVVTVPSSSLGTQTYICNVNHKPSNTKVDKKVEPKSCDKTHTCPPCPAPELLGGPSVFLFPPKPKDTLMISRTPEVTCVVVDVSHEDPEVKFNWYVDGVEVHNAKTKPCEEQYGSTYRCVSVLTVLHQDWLNGKEYKCKVSNKALPAPIEKTISKAKGQPREPQVYTLPPSRKEMTKNQVSLTCLVKGFYPSDIAVEWESNGQPENNYKTTPPVLKSDGSFFLYSKLTVDKSRWQQGNVFSCSVMHEALHNHYTQKSLSLSPGK	90	96
iPS:327699 (bispecific antibody, human IgG1, kappa, lambda, N297G) light 1: not shown heavy 1: not shown light 2: QSVLTQPPSVSAAPGQKVTISCSGSSSNIGNNYVSWYQQLPGTAPKLLIYDNNKRPSGIPDRFSGSKSGTSTTLGITGLQTGDEADYYCGTWDSRLSAVVFGGGTKLTVLGQPKANPTVTLFPPSSEELQANKATLVCLISDFYPGAVTVAWKADGSPVKAGVETTKPSKQSNNKYAAKSYLSLTPEQWKSHRSYSCQVTHEGSTVEKTVAPTECS heavy 2: QVQLVESGGGVVQPGRSLRLSCAASGFTFSSFGMHWVRQAPGKGLEWVAVISFDGSIKYSVDSVKGRFTISRDNSKNTLFLQMNSLRAEDTAVYYCARDRLNYYESSGYYHYKYYGMAVWGQGTTVTVSSASTKGPSVFPLAPSSKSTSGGTAALGCLVKDYFPEPVTVSWNSGALTSGVHTFPAVLQSSGLYSLESVVTVPSSSLGTQTYICNVNHKPSNTKVDKKVEPKSCDKTHTCPPCPAPELLGGPSVFLFPPKPKDTLMISRTPEVTCVVVDVSHEDPEVKFNWYVDGVEVHNAKTKPCEEQYGSTYRCVSVLTVLHQDWLNGKEYKCKVSNKALPAPIEKTISKAKGQPREPQVYTLPPSRKKMTKNQVSLTCLVKGFYPSDIAVEWESNGQPENNYKTTPPVLKSDGSFFLYSKLTVDKSRWQQGNVFSCSVMHEALHNHYTQKSLSLSPGK	72	92
